According to US20040157248:

Experiments:
[1] = target: RecA E38K/ΔC17 (Escherichia coli) (UniProt P0A7G6); conditions: apparent kcat of ATP hydrolysis with SSB-prebound poly(dT); no lag; higher with SSB than without
[2] = target: RecAΔC17 (Escherichia coli) (UniProt P0A7G6); conditions: salt titration midpoint by DNA-dependent ATPase, no SSB, 37 C; value is NaCl at half-maximal ATPase
[3] = target: RecA wild-type (Escherichia coli) (UniProt P0A7G6); conditions: salt titration midpoint by DNA-dependent ATPase, no SSB, 37 C; value is NaCl at half-maximal ATPase
[4] = target: RecA wild-type (Escherichia coli) (UniProt P0A7G6); conditions: ATPase rate without SSB relative to with SSB, 10 mM Mg
[5] = target: RecAΔC17 (Escherichia coli) (UniProt P0A7G6); conditions: ATPase rate without SSB relative to with SSB, 10 mM Mg

Row | Substance | activity [1] | K half [2] | K half [3] | relative ATPase rate [4] | relative ATPase rate [5]
1 | poly(dT) | > 20 min⁻¹ | 700 mM NaCl | 750 mM NaCl |  | 
2 | M13mp8 circular ssDNA |  |  |  | 30% | 84%
